Test results: the nanobody polyreactivity screen of Harvey et al. (2022)

assay: yeast display, Sf9 membrane polyspecificity reagent, FACS + sequencing; frameworks hold sequencing errors
Method in brief: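 Nanobodies came from a synthetic yeast display library in Saccharomyces cerevisiae BJ5465, induced with galactose for 36–48 hours and stained for 1 hour at 4 °C with 10% biotinylated, detergent-solubilized Sf9 membrane reagent. Cells were enriched on streptavidin microbeads and then FACS-sorted, with low and high (top ~1%) gates set on anti-HA fluorescence for expression and streptavidin fluorescence for reagent binding. Each polyreactivity label reflects the gate a clone came from. Genes were amplified by colony PCR, sequenced by MiSeq 2 × 250 and filtered by CDR length.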

Sequence | polyreactivity (PSR sort gate)
QVQLVESGGGLVQAGGSLRLSCAASGRTFTLYAMGWSRPAPGKERELVAAIRWSGSSTYYADSVKGRFTISRDNSKNTVYLQMNSLKPEDTAVYYCAARAGRYDRYGYWGQGTQVTVSS | high polyreactivity
QVQLVESGGGLVQAGGSLRLSCAASGRTFTNNAMGWYRQAPGKERELVARITKTSGSTHYADSVKGRFTNSRDNAKNTVYLQMNSMKPEDTAVYYCATRGHYHGFYYTYPRYDSWGQGTQVTVSS | low polyreactivity
QVQLVESGGGLVQAGGSLRLSCAASGRTFTPNVMGWYRQAPGKERELVAAITQSGGRTYYADSVKGRFTISRDNAKNTVYLQMNSLKPEDTAVYYCNAERAGTYRYDYWGQGTQVTVSS | high polyreactivity
QVQLVESGGGLVQAGGSLRLSCAASGRTFTPYAMGWYRPAPGKERELVATISSGTSTNYADSVKGRVTISRDNAKNTVYLQMNSLKPEDTAVYYCSPSRDTVGRGPIQRDYWGQGTQVTVSS | low polyreactivity
QVQLVESGGGLVQAGGSLRLSCAASGRTFTPYAMGWYRQAPGKERELVAAITSNSGITSYADSVKGRFTISRDNAKNTVYLQMNSLKPEDTAVYYCNADYYRYFRYYYWGQGTQVTVSS | high polyreactivity
QVQLVESGGGLVQAGGSLRLSCAASGRTFTPYTMGWYRQAPGKEREFVAAITVRGGSTYYADSVKGRFTISRDNAKNTVYLQMNSLKPEDTAVYYCAASYVSYRKRDDYWGQGTQVTVSS | high polyreactivity
QVQLVESGGGLVQAGGSLRLSCAASGRTFTQYAMGWYRQAPGKDRELVAAIDYRGSRTYYADSVKGRFTLTRDKAKNTVYLQMNSLKPEDTAVYYCNTVHRFGTYDYWGEGTQVTVSS | high polyreactivity
QVQLVESGGGLVQAGGSLRLSCAASGRTFTRNAMGWYRQAPGKERELVAAITYRAGRTYYADSVKGRFTISRDNAKNTVYLQMNSLKPEDTAVYYCNVVPGASLKEDYWGQGTQVTVSS | low polyreactivity
QVQLVESGGGLVQAGGSLRLSCAASGRTFTRYAMGLYRPAPGKERELVAAISYIGGRTNYADSVKGRFTISRDNAKKTVYLQMHSLKPEDTAVYYCAASRPWVYYDGLVYWGQGTQVTVTS | high polyreactivity
QVQLVESGGGLVQAGGSLRLSCAASGRTFTRYAMGWYRQAPGKERELVAAISGGGGSTYYADSVKGRFTISRDNAKNTVYLQMNSLKPEDTAVYYCAADVTYGTKWAYDYWGQGTQVTVSS | high polyreactivity
QVQLVESGGGLVQAGGSLRLSCAASGRTFTRYAMGWYRQAPGKERELVAAISRSGGSTHYADSVKGRFTISRDKAKNTVYLQMNSLKPEDTAVYYCNAQQGRYWSAKGYDYWGQGTQVTVSS | high polyreactivity
QVQLVESGGGLVQAGGSLRLSCAASGRTFTRYTKGWYRQAPRKERDLVAASTRGGSTYADSVKGRFTNSRDNAKNTVYLEMNSLKPEDTAVYYCAAYWGFFPWRAYPYDYWGQGTQVTVSS | high polyreactivity
QVQLVESGGGLVQAGGSLRLSCAASGRTFTRYTMGWYRQAPRKERELVAAITRGGTTYYADSVKGRFTISRDNAKNTVYLQMNSLKPEDTAVYYCNKRKQQSSDGYGYWGQGTQVTVSS | high polyreactivity
QVQLVESGGGLVQAGGSLRLSCAASGRTFTSNGMGWYRQAPGKERELVAAITSGTSTYYADSVKGRFTISRDNAKNTVYLQMNSLKPEDTAVYYCNKLVPRGSSYSTVIRGGGYWGQGTQVTVSS | high polyreactivity
QVQLVESGGGLVQAGGSLRLSCAASGRTFTSYAMGWYRQAPGKERELVAGISSGGSTNYADSVKGRFTISRDNAKNTVYLQMNSLKPVDTAVYYCAAGFSPGTFYAPTLAFDYWGQGTQVTVSS | low polyreactivity
QVQLVESGGGLVQAGGSLRLSCAASGRTFTSYAMGWYRQAPGKERELVAGISSGGSTNYADSVKGRFTISRDNEKNTVYLQMNSLKPEDTEVYYCAAGFSPGTYDAPTLAFDYWGQGTQVTVSS | low polyreactivity
